Results from US6534629B1, “Nematode-extracted serine protease inhibitors and anticoagulant proteins” (priority 1994, dated 2003).
Read-outs that look alike come from different tables or passages of the source. Marks after values point to notes of the source that are not given here.

Legend:
[1] = test system: FeCl3-induced platelet-dependent arterial thrombosis; assay: Rat model of FeCl3-induced platelet-dependent arterial thrombosis, intravenous administration; format: in vivo; conditions: dose that prevents complete thrombotic occlusion in 50% of animals
Experimental: The antithrombotic (prevention of thrombus formation) properties of NAP were evaluated using the established experimental rat model of acute vascular thrombosis.
The rat FeCl3 model is a well characterized model of platelet dependent, arterial thrombosis which has been used to evaluate potential antithrombotic compounds. Kurz, K. D., Main, B. W., and Sandusky, G. E., Thromb. Res., 60: 269-280 (1990). In this model a platelet-rich, occlusive thrombus is formed in a segment of the rat carotid artery treated locally with a fresh solution of FeCl3 absorbed to a piece of filter paper. The FeCl3 is thought to diffuse into the treated segment of artery and cause de-endothelialization of the affected vessel surface. […] The net result is occlusive thrombus formation. The effect of a test compound on the incidence of occlusive thrombus formation following application of FeCl3 is monitored by ultrasonic flowtometry and is used as the primary end point. […]
Following surgery the animals were randomized in either a control (saline) or treatment (recombinant AcaNAP5) group. […] Blood pressure, blood flow, heart rate, and respiration were monitored for 60 minutes. The incidence of occlusion (defined as the attainment of zero blood flow) was recorded as the primary end point.

[2] = test system: normal citrated human plasma; assay: Prothrombin time (PT) assay; format: biochemical; conditions: for coagulation time of human plasma (Prothrombin Time Assay), in words: P. pastoris culture supernatant / growth media; for Doubling Concentration (nM) in the PT: concentration that doubled the control clotting time (12.1 seconds) of normal human plasma
Experimental: (§1) The ex vivo anticoagulant effects of NAPs of the present invention in human plasma were evaluated by measuring the prolongation of the activated partial thromboplastin time (aPTT) and prothrombin time (PT) over a broad concentration range of each inhibitor.
(§2) Fresh frozen pooled normal citrated human plasma was obtained from George King Biomedical, Overland Park, Kans. Respective measurements of aPTT and PT were made using the Coag-A-Mate RA4 automated coagulometer (General Diagnostics, Organon Technica, Oklahoma City, Okla.) using the Automated aPTT Platelin® reagent (Organon Technica, Durham, N.C.) and Simplastin® Excel (Organon Technica, Durham, N.C.) respectively, as initiators of clotting according to the manufacturer's instructions.
(§3) The assays were conducted by making a series of dilutions of each tested NAP in rapidly thawed plasma followed by adding 200 microliters or 100 microliters of the above referenced reagents to the wells of the assay carousel for the aPTT or PT measurements, respectively. Alternatively, the NAPs were serially diluted into HBSA and 10 μl of each dilution were added to 100 μl of normal human plasma in the wells of the Coag-A-Mate assay carousel, followed by addition of reagent.
Concentrations of NAP were plotted against clotting time, and a doubling time concentration was calculated, i.e., a specified concentration of NAP that doubled the control clotting time of either the PT or the aPTT. The control clotting times (absence of NAP) in the PT and APTT were 12.1 seconds and 28.5 seconds, respectively.

[3] = test system: normal citrated human plasma; assay: Activated partial thromboplastin time (aPTT) assay; format: biochemical; conditions: concentration that doubled the control clotting time (28.5 seconds) of normal human plasma
Experimental: as §1, §2, §3
Concentrations of NAP were plotted against clotting time, and a doubling time concentration was calculated, i.e., a specified concentration of NAP that doubled the control clotting time of either the PT or the aPTT.

[4] = test system: acute coronary artery thrombosis; assay: Pig model of acute coronary artery thrombosis; format: in vivo; conditions: for Time of Occulsion: non-occluded vessels assigned 240 minutes
Description: The protocol used in these studies is a modification of a thrombosis model which has been reported previously (Lucchesi, B. R., et al., (1994), Brit. J. Pharmacol. 113: 1333-1343).
Animals were anesthetized and instrumented with arterial and venous catheters (left common carotid and external jugular, respectively). A thoracotomy was made in the 4th intercostal space and the heart was exposed. The left anterior descending (LAD) coronary artery was isolated from the overlying connective tissue and was instrumented with a Doppler flow probe and a 17 gauge ligature stenosis. An anodal electrode also was implanted inside the vessel.
Baseline measurements were taken and the NAP or placebo to be tested was administered via the external jugular vein. Five minutes after administration, a direct current (300 μA, DC) was applied to the stimulating electrode to initiate intimal damage to the coronary endothelium and begin thrombus formation. Current continued for a period of 3 hours. Animals were observed until either 1 hour after the cessation of current or the death of the animal, whichever came first.
The incidence of occlusion in the animals receiving placebo was 8/8 (100%). Time to occlusion in placebo treated animals was 66.6±7.5 min. (mean±sem).

[5] = test system: human rFVIIa/rTF/PLV complex; assay: Factor VIIa/Tissue factor amidolytic assay; format: biochemical
Experimental: Lyophilized, purified, recombinant human factor VIIa was obtained from BiosPacific, Inc. (Emeryville, Calif.), and reconstituted in HBS (10 mM HEPES, pH 7.5, 150 mM sodium chloride) prior to use. Purified human Factor X was obtained from Enzyme Research Laboratories, Inc. (South Bend, Ind.) and Factor Xa (free FXa) was activated and prepared from Factor X as described (Bock, P. E., Craig, P. A., Olson, S. T., and Singh, P. Arch. Biochem. Biophys. 273: 375-388 (1989)). Active site-blocked human Factor Xa (EGR-FXa), which had been irreversibly inactivated with L-Glutamyl-L-glycyl-L-arginyl chloromethylketone, was obtained from Haematologic Technologies, Inc. (Essex Junction, Vt.). Recombinant human tissue factor (rTF) was produced by a baculovirus-expression system, and purified to homogeneity by monoclonal antibody affinity chromatography (Corvas International, Inc., San Diego, Calif.).
The purified rTF apoprotein was incorporated into phospholipid vesicles (rTF/PLV), consisting of phosphotidyl choline (75%, w/v) and phosphotidyl serine (25%, w/v) in the presence of detergent, as described by Ruf et al. (Ruf, W., Miles, D. J., Rehemtulla, A., and Edgington, T. S. Methods in Enzymology 222: 209-224 (1993)). The phospholipids were purchased from Avanti Polar Lipids, (Alabaster, Ala.). The buffer used for all assays was HBSA, HBS containing 0.1% (w/v) bovine serum albumin. All reagents were obtained from Sigma Chemical Cb. (St. Louis, Mo.), unless otherwise indicated.
rFVIIa/rTF amidolytic activity was determined using the chromogenic substrate S-2288 (H-D-isoleucyl-L-prolyl-L-arginine-p-nitroaniline), obtained from Kabi Pharmacia Hepar, Inc. (Franklin, Ohio). The substrate was reconstituted in deionized water prior to use. rFVIIa and rTF/PLV were combined in a polypropylene test tube, and allowed to form a complex for 10 min in HBSA, containing 3 mM CaCl2. […] Following an incubation of 30 min at ambient temperature, the triplicate reactions were initiated by adding 50 μL of S-2288.
The amidolytic activity of rFVIIa/rTF/PLV was measured as a linear increase in the absorbance at 405 nm over 10 min (velocity), using a Thermo Max® Kinetic Microplate Reader (Molecular Devices, Palo Alto, Calif.), under steady-state conditions, where less than 5% of the substrate was consumed. Ratios of inhibited pre-equilibrium, steady-state velocities (Vi), in the presence of NAP, to the uninhibited velocity in the presence of free fXa alone (Vo) were plotted against the corresponding concentrations of NAP.

[6] = No FXa Addition, read-out: Ki* (pM) Amidolytic Assay, No FXa Addition

CC1CNc2c(cccc2S(=O)(=O)N[C@@H](CCCNC(=N)N)C(=O)N2CC[C@@H](C)C[C@@H]2C(=O)O)C1 (some centres unmarked) [Argatroban] was tested, and the ED50 ([1]; read-out: ED50) was 3.8 mg/kg.

Molecule “rTAP: recombinant Tick Anticoagulant Peptide, 60 amino acid factor Xa inhibitor from Ornithodoros moubata (YNRLCIKPRDWIDECDSNEGGERAYFRNGKGGCDSFWICPEDHTGADYYSSYRDCFNACI; UniProt P17726 1-60, looked up)” has an ED50 [1] of 0.6 mg/kg.

B1: AcaNAP42: NAP of Ancylostoma caninum, SEQ. ID. NO. 47; AcaNAP31, 42 and 46 encode identical proteins (protein)
chain: KSLWDQKCGENERLDCGNQKDCERKCDDKRSEEEIMQACLTRQCLPPVCVCEDGFYRNDNDQCVDEEECNMEFITFAP
B1 was tested, and the “coagulation time of human plasma (Prothrombin Time Assay), in words” value [2] was “prolongation of the coagulation time of human plasma”.

B2: AceNAP4: NAP of Ancylostoma ceylanicum with two NAP domains, SEQ. ID. NO. 62 (protein)
chain: KPNNVMTNACGLNEYFAECGNMKECEHRCNEEENEERDEERITACLIRVCFRPGACVCKDGFYRNRTGSCVEEDDCEYENMEFITFAPEVPICGSNERYSDCGNDKQCERKCNEDDYEKGDEACRSHVCERPGACVCEDGFYRNKKGSCVESDDCEYDNMDFITFAPETSR
For B2, the “Doubling Concentration (nM) in the PT” value [2] was 40 ± 4 nM and the “Doubling Concentration (nM) in the aPTT” value [3] was 115 ± 12 nM.

B3: AcaNAPc2P: AcaNAPc2 with an additional proline residue at the C-terminus (protein)
chain: KATMQCGENEKYDSCGSKECDKKCKYDGVEEEDDEEPNVPCLVRVCHQDCVCEEGFYRNKDDKCVSAEDCELDNMDFIYPGTRNP
For B3, the “Incidence of Occlusion” value ([4]; 0.01 mg/kg i.v.) was 6/6, the “Total Blood Loss” value ([4]; 0.01 mg/kg i.v.) was 1.6 ± 0.3 mL and the “Time of Occulsion” value ([4]; 0.01 mg/kg i.v.) was 105 ± 6.2 min. The “Incidence of Occlusion” value ([4]; 0.03 mg/kg i.v.) was 4/6, the “Total Blood Loss” value ([4]; 0.03 mg/kg i.v.) was 4.9 ± 1.4 mL and the “bleeding, in words” value ([4]; 0.03 mg/kg i.v.) was “did not produce significant elevations in bleeding”. The “time to occlusion, in words” value ([4]; 0.03 mg/kg i.v.) was “significantly prolonged”, the “Time of Occulsion” value ([4]; 0.03 mg/kg i.v.) was 159 ± 27 min and the “Incidence of Occlusion” value ([4]; 0.10 mg/kg i.v.) was 2/6†. For the same molecule, the “Total Blood Loss” value ([4]; 0.10 mg/kg i.v.) was 17.6 ± 7.9 mL, the “Time of Occulsion” value ([4]; 0.10 mg/kg i.v.) was 215 ± 25 min and the “in vitro activity in inhibitory assays of rFVIIa/rTF activity, compared with AcaNAPc2” value [5] was “substantially the same as AcaNAPc2”. For the same molecule, the “coagulation time of human plasma (Prothrombin Time Assay), in words” value [2] was “prolongation of the coagulation time of human plasma”.

B4: AcaNAP6: NAP of Ancylostoma caninum, SEQ. ID. NO. 6; recombinant, made in Pichia pastoris (protein)
chain: KAYPECGENEWLDVCGTKKPCEAKCSEEEEEDPICRSFSCPGPAACVCEDGFYRDTVIGDCVKEEECDQHEIIHV
In the case of B4, the Ki [5, 6] is reported as > 1500 pM, the Ki ([5]; Plus EGR-FXa (2.5 nM), read-out: Ki* (pM) Amidolytic Assay, Plus EGR-FXa) is reported as > 1500 pM and the “Doubling Concentration (nM) in the PT” value [2] is reported as 37 ± 3 nM. The “Doubling Concentration (nM) in the aPTT” value [3] was 62 ± 0 nM.

B5: Pro-AcaNAP5: AcaNAP5 with four additional N-terminal amino acids, SEQ. ID. NO. 7, made in COS cells (protein)
chain: RTVRKAYPECGENEWLDDCGTQKPCEAKCNEEPPEEEDPICRSRGCLLPPACVCKDGFYRDTVIGDCVREEECDQHEIIHV
For B5, the “Doubling Concentration (nM) in the PT” value [2] was 21.9 nM and the “Doubling Concentration (nM) in the aPTT” value [3] was 31.0 nM.

B6: AcaNAPc2: NAP of Ancylostoma caninum isolated by phage display, SEQ. ID. NO. 59; fVIIa/TF inhibitor (protein)
chain: KATMQCGENEKYDSCGSKECDKKCKYDGVEEEDDEEPNVPCLVRVCHQDCVCEEGFYRNKDDKCVSAEDCELDNMDFIYPGTRN
For B6, the Ki [5, 6] was > 1500 pM and the “Doubling Concentration (nM) in the PT” value [2] was 15 ± 1 nM.
